Experiments:
ADI-70326 = target: T1, ADI-70326; experiment: SPR Carterra avidity, yeast anti-ID
T1 construct: anti-CD3 antibody made in CHO cells, captured by anti-human Fc
Experimental: (§1) Kinetic analysis was conducted at 25° C. in an HBSTE running buffer system (Carterra Cat #3630) using a Carterra LSA (Carterra USA, Salt Lake City, UT). The sample compartment was maintained at 20° C. for the duration of each experiment.
(§2) For antibody capture experiments, a goat anti-human Fc antibody (Jackson ImmunoResearch) was covalently coupled to an HC30M sensor chip surface via standard amine coupling (1:1 EDC:NHS) and then blocked with ethanolamine (1.0 M, pH 8.5). Covalent coupling steps were performed in 25 mM MES buffer (Carterra, Cat #3625) plus 0.05% Tween20. The anti-CD3 antibodies (100 nM in running buffer) were flowed over discrete regions of interest on the chip surface for 5 minutes. […] Dissociation of the anti-idiotype antibodies was monitored for 300s. Several blank buffer samples were injected over the entire chip surface at the start of each non-regenerative kinetic cycle. The preceding blank buffer injection was used for blank surface subtraction. At the end of each non-regenerative kinetic cycle, all surfaces were regenerated via two 30s injections of 10 mM glycine, pH 1.7.
(§3) For data processing and fitting, sensorgrams were double reference subtracted with a baseline drift correction of 4 RU. Sensorgrams were y-aligned and baseline corrected, filtered and cropped to include only the association and dissociation steps. Data was fitted to a 1:1 binding model using Carterra Kinetics Data Analysis software version 1.7.1.3055.

ADI-70327 = target: T2, ADI-70327; experiment: SPR Carterra avidity, yeast anti-ID
T2 construct: anti-CD3 antibody made in CHO cells, captured by anti-human Fc
Experimental: as §1, §2, §3

ADI-70330 = target: T3, ADI-70330; experiment: SPR Carterra avidity, yeast anti-ID
T3 construct: anti-CD3 antibody made in CHO cells, captured by anti-human Fc
Experimental: as §1, §2, §3

ADI-67450 = target: T4, ADI-67450; experiment: SPR Carterra avidity, yeast anti-ID
T4 construct: anti-CD3 antibody made in CHO cells, captured by anti-human Fc
Experimental: as §1, §2, §3

ADI-67445 = target: T5, ADI-67445; experiment: SPR Carterra avidity, yeast anti-ID
T5 construct: anti-CD3 antibody made in CHO cells, captured by anti-human Fc
Experimental: as §1, §2, §3

ADI-67447 = target: T6, ADI-67447; experiment: SPR Carterra avidity, yeast anti-ID
T6 construct: anti-CD3 antibody made in CHO cells, captured by anti-human Fc
Experimental: as §1, §2, §3

ADI-26909 = target: T7, ADI-26909; experiment: SPR Carterra avidity, yeast anti-ID
T7 construct: anti-CD3 antibody made in CHO cells, captured by anti-human Fc
Experimental: as §1, §2, §3

ADI-26913 IgG = target: T8, ADI-26913 IgG; experiment: SPR Carterra avidity, yeast anti-ID
T8 construct: anti-CD3 IgG
Experimental: as §1, §2, §3

ADI-26919 = target: T9, ADI-26919; experiment: SPR Carterra avidity, yeast anti-ID
T9 construct: anti-CD3 antibody made in CHO cells, captured by anti-human Fc
Experimental: as §1, §2, §3

ADI-26921 IgG = target: T10, ADI-26921 IgG; experiment: SPR Carterra avidity, yeast anti-ID
T10 construct: anti-CD3 IgG
Experimental: as §1, §2, §3

ADI-26916 IgG = target: T11, ADI-26916 IgG; experiment: SPR Carterra avidity, yeast anti-ID
T11 construct: anti-CD3 IgG
Experimental: as §1, §2, §3

ADI-26912 = target: T12, ADI-26912; experiment: SPR Carterra avidity, yeast anti-ID
T12 construct: anti-CD3 antibody made in CHO cells, captured by anti-human Fc
Experimental: as §1, §2, §3

ADI-26924 = target: T13, ADI-26924; experiment: SPR Carterra avidity, yeast anti-ID
T13 construct: anti-CD3 antibody made in CHO cells, captured by anti-human Fc
Experimental: as §1, §2, §3

ADI-26915 = target: T14, ADI-26915; experiment: SPR Carterra avidity, yeast anti-ID
T14 construct: anti-CD3 antibody made in CHO cells, captured by anti-human Fc
Experimental: as §1, §2, §3

ADI-26943 = target: T15, ADI-26943; experiment: SPR Carterra avidity, yeast anti-ID
T15 construct: anti-CD3 antibody made in CHO cells, captured by anti-human Fc
Experimental: as §1, §2, §3

ADI-48576 = target: T16, ADI-48576; experiment: SPR Carterra avidity, yeast anti-ID
T16 construct: pH-dependent anti-CD3 antibody made in CHO cells
Experimental: as §1, §2, §3

ADI-48587 = target: T17, ADI-48587; experiment: SPR Carterra avidity, yeast anti-ID
T17 construct: pH-dependent anti-CD3 antibody made in CHO cells
Experimental: as §1, §2, §3

ADI-48592 = target: T18, ADI-48592; experiment: SPR Carterra avidity, yeast anti-ID
T18 construct: pH-dependent anti-CD3 antibody made in CHO cells
Experimental: as §1, §2, §3

ADI-48650 = target: T19, ADI-48650; experiment: SPR Carterra avidity, yeast anti-ID
T19 construct: pH-dependent anti-CD3 antibody made in CHO cells
Experimental: as §1, §2, §3

ADI-74965 = target: T20, ADI-74965; experiment: SPR Carterra avidity, yeast anti-ID
T20 construct: pH-dependent anti-CD3 antibody made in CHO cells
Experimental: as §1, §2, §3

ADI-74966 = target: T21, ADI-74966; experiment: SPR Carterra avidity, yeast anti-ID
T21 construct: pH-dependent anti-CD3 antibody made in CHO cells
Experimental: as §1, §2, §3

ADI-74968 = target: T22, ADI-74968; experiment: SPR Carterra avidity, yeast anti-ID
T22 construct: pH-dependent anti-CD3 antibody made in CHO cells
Experimental: as §1, §2, §3

ADI-76358 = target: T23, ADI-76358; experiment: SPR Carterra avidity, yeast anti-ID
T23 construct: anti-CD3 antibody made in CHO cells, captured by anti-human Fc
Experimental: as §1, §2, §3

ADI-76359 = target: T24, ADI-76359; experiment: SPR Carterra avidity, yeast anti-ID
T24 construct: anti-CD3 antibody made in CHO cells, captured by anti-human Fc
Experimental: as §1, §2, §3

ADI-76360 = target: T25, ADI-76360; experiment: SPR Carterra avidity, yeast anti-ID
T25 construct: anti-CD3 antibody made in CHO cells, captured by anti-human Fc
Experimental: as §1, §2, §3

ADI-76362 = target: T26, ADI-76362; experiment: SPR Carterra avidity, yeast anti-ID
T26 construct: anti-CD3 antibody made in CHO cells, captured by anti-human Fc
Experimental: as §1, §2, §3

CTL-62223 = target: T27, CTL-62223; experiment: SPR Carterra avidity, yeast anti-ID
T27 construct: also called mosunetuzumab
Experimental: as §1, §2, §3

ADI-22523 Fab = target: T28, ADI-22523 Fab; experiment: BLI; tip anti-ID IgG, solution ADI-22523 Fab
T28 construct: anti-CD3 Fab by papain digestion of the IgG
Experimental: (§4) ForteBio affinity measurements were performed generally as previously described (Estep et al., MAbs. 2013 5(2):270-8). Briefly, ForteBio affinity measurements were performed by loading antibody IgG or Fabs on-line onto AHC sensors. Sensors were equilibrated off-line in assay buffer for 30 minutes and then monitored on-line for 60 seconds for baseline establishment. For avid binding measurement, sensors with loaded antibodies were exposed to IgG or Fab solutions for 3 minutes, afterwards they were transferred to assay buffer for 3 minutes for off-rate measurement. Kinetics data were fit using a 1:1 binding model in the data analysis software provided by ForteBio to obtain equilibrium dissociation constant (KD=koff/kₒₙ) values. In each column, tip-immobilized antibodies are listed first and solution antibodies second.

ADI-22523 IgG = target: T29, ADI-22523 IgG; experiment: BLI; tip anti-ID IgG, solution ADI-22523 IgG
T29 construct: anti-CD3 IgG
Experimental: as §4

ADI-50024 = target: T30, ADI-50024; experiment: SPR Carterra avidity, yeast anti-ID, *koff limit
T30 construct: anti-CD3 antibody made in CHO cells, captured by anti-human Fc
Experimental: as §1, §2, §3

ADI-26906 IgG = target: T31, ADI-26906 IgG; experiment: SPR Carterra avidity, yeast anti-ID, *koff limit
T31 construct: anti-CD3 IgG
Experimental: as §1, §2, §3

ADI-26920 IgG = target: T32, ADI-26920 IgG; experiment: SPR Carterra avidity, yeast anti-ID, *koff limit
T32 construct: anti-CD3 IgG
Experimental: as §1, §2, §3

ADI-74967 = target: T33, ADI-74967; experiment: SPR Carterra avidity, yeast anti-ID, *koff limit
T33 construct: pH-dependent anti-CD3 antibody made in CHO cells
Experimental: as §1, §2, §3

ADI-76357 = target: T34, ADI-76357; experiment: SPR Carterra avidity, yeast anti-ID, *koff limit
T34 construct: anti-CD3 antibody made in CHO cells, captured by anti-human Fc
Experimental: as §1, §2, §3

ADI-76361 = target: T35, ADI-76361; experiment: SPR Carterra avidity, yeast anti-ID, *koff limit
T35 construct: anti-CD3 antibody made in CHO cells, captured by anti-human Fc
Experimental: as §1, §2, §3

T29 sequence (VH, as listed by the source limits assumed, chain 1 of 2): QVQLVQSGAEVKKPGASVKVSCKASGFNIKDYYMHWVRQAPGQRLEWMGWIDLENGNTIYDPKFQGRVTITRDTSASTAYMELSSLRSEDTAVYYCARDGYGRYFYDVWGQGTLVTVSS
T29 sequence (VL, as listed by the source limits assumed, chain 2 of 2): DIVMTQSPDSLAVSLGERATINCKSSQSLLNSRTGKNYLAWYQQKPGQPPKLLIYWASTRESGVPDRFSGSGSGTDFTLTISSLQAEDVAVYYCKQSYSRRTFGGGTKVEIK
T26 sequence (VH, as listed by the source, chain 1 of 2): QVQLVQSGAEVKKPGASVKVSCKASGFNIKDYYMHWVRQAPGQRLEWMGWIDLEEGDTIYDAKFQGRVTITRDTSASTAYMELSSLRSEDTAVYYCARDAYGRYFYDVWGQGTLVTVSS
T26 sequence (VL, as listed by the source, chain 2 of 2): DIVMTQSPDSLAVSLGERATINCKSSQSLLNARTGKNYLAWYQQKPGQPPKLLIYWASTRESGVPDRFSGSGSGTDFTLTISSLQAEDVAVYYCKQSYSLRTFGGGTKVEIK
T11 sequence (VH, as listed by the source, chain 1 of 2): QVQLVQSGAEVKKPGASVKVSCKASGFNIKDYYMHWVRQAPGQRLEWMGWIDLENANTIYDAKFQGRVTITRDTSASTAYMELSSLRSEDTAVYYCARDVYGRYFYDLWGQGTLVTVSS
T11 sequence (VL, as listed by the source, chain 2 of 2): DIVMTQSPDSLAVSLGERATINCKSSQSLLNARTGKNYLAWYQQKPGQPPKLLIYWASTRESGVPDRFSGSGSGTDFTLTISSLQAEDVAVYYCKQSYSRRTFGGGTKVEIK
T12 sequence (VH, as listed by the source, chain 1 of 2): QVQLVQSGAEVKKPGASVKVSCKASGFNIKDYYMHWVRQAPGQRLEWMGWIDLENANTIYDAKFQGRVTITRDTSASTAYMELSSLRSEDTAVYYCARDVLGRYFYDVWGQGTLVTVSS
T30 sequence (VH, as listed by the source limits assumed, chain 1 of 2): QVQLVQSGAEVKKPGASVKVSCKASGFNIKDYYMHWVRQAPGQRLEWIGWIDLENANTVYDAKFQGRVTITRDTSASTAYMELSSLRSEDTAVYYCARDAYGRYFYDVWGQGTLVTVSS
T30 sequence (VL, as listed by the source limits assumed, chain 2 of 2): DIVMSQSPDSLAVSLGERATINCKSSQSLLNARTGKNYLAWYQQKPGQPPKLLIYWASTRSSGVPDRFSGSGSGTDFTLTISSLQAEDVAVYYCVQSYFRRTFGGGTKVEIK
T19 sequence (VH, as listed by the source, chain 1 of 2): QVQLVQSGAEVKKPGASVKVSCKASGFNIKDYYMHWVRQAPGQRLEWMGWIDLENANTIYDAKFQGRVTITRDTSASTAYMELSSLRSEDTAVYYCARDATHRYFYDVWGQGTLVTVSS
T19 sequence (VL, as listed by the source, chain 2 of 2): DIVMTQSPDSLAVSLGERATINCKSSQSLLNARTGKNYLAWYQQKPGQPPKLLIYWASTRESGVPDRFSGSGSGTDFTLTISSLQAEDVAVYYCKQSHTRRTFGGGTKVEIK
T14 sequence (VH, as listed by the source, chain 1 of 2): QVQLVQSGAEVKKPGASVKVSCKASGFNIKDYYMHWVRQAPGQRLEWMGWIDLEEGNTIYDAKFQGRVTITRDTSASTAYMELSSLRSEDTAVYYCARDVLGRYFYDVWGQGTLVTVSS
T24 sequence (VH, as listed by the source, chain 1 of 2): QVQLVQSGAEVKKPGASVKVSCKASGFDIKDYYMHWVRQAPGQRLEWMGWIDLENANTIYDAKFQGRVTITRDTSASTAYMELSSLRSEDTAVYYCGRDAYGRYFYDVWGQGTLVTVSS
T32 sequence (VH, as listed by the source limits assumed, chain 1 of 2): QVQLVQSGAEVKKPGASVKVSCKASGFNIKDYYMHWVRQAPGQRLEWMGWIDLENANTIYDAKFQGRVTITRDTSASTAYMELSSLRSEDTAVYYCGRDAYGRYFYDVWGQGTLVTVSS
T5 sequence (VH, as listed by the source limits assumed, chain 1 of 2): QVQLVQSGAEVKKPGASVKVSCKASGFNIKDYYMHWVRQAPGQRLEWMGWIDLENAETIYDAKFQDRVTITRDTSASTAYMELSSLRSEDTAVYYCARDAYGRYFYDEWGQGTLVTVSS
T6 sequence (VH, as listed by the source limits assumed, chain 1 of 2): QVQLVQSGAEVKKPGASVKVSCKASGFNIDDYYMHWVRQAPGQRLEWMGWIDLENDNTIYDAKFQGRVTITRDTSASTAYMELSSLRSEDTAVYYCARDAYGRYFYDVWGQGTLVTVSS
T4 sequence (VH, as listed by the source limits assumed, chain 1 of 2): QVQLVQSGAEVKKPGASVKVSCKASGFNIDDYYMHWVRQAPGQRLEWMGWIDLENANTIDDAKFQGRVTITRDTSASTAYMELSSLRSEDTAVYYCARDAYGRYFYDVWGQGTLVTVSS
T7 sequence (VH, as listed by the source limits assumed, chain 1 of 2): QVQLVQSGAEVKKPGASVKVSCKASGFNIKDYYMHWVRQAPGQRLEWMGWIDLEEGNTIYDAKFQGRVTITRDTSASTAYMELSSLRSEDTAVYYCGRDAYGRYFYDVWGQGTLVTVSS
T18 sequence (VH, as listed by the source, chain 1 of 2): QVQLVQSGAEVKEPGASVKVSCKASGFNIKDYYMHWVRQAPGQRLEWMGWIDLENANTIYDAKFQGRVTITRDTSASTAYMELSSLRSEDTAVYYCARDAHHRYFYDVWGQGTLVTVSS
T18 sequence (VL, as listed by the source, chain 2 of 2): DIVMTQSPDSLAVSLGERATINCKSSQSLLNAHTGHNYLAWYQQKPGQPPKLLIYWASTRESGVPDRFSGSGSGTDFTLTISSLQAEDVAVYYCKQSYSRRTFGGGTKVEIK
T10 sequence (VH, as listed by the source limits assumed, chain 1 of 2): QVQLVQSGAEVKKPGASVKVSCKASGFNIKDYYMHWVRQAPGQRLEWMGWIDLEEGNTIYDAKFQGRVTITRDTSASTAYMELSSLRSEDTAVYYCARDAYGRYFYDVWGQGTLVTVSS
T31 sequence (VH, as listed by the source limits assumed, chain 1 of 2): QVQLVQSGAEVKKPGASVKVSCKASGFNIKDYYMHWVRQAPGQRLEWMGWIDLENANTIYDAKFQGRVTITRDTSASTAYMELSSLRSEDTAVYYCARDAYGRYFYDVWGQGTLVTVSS

B1: ADI-34136 (antibody, V domains shown)
VH: QVQLVQSGAEVKKPGSSVKVSCKASGGTFSSYAISWVRQAPGQGLEWMGGIIPIFGTANYAQKFQGRVTITADESTSTAYMELSSLRSEDTAVYYCARGAPNYYGSGGYDDGWFDPWGQGTLVTVSS
VL: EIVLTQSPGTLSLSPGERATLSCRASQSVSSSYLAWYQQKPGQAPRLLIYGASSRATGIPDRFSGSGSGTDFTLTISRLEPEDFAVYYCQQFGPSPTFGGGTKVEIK
notes: anti-ID IgG
ADI-70326
  Kd: 2.1 nM
ADI-70327
  Kd: 2 nM
ADI-70330
  Kd: 0.42 nM
ADI-67450
  Kd: 0.56 nM
ADI-67445
  Kd: 0.34 nM
ADI-67447
  Kd: 0.18 nM
ADI-26909
  Kd: 0.3 nM
ADI-26913 IgG
  Kd: 0.18 nM
ADI-26919
  Kd: 0.16 nM
ADI-26921 IgG
  Kd: 0.18 nM
ADI-26916 IgG
  Kd: 0.35 nM
ADI-26912
  binding result: binds
ADI-26924
  Kd: 0.17 nM
ADI-26915
  binding result: binds
ADI-26943
  Kd: 0.25 nM
ADI-48576
  Kd: 29 nM
ADI-48587
  Kd: 1.9 nM
ADI-48592
  binding result: binds
ADI-48650
  Kd: 3.3 nM
ADI-74965
  Kd: 9.4 nM
ADI-74966
  Kd: 0.64 nM
ADI-74968
  Kd: 1.2 nM
ADI-76358
  Kd: 0.73 nM
ADI-76359
  Kd: 0.12 nM
ADI-76360
  Kd: 0.35 nM
ADI-76362
  Kd: 0.14 nM
CTL-62223
  Kd: 1.2 nM
ADI-22523 Fab
  Kd: 30.4 nM
ADI-22523 IgG
  Kd: 0.75 nM
ADI-50024
  Kd: 0.42 nM
ADI-26906 IgG
  Kd: 0.25 nM
ADI-26920 IgG
  Kd: 0.14 nM
ADI-74967
  Kd: 0.15 nM
ADI-76357
  Kd: 0.12 nM
ADI-76361
  Kd: 0.1 nM
